# Reference: article PMC3579926
# Values joined by “and” are separate entries in the source; they are usually repeats but may differ in a detail not shown here. Equal entries are not always repeated.
# What was measured:
# Experiment in all cases: SEC; Superdex 200 (10/300), 4°C, protein at 1 mg/mL, 20 mM HEPES-NaOH pH 7.5, 1.0 M NaCl, 20 µM ZnCl2, 5 mM β-mercaptoethanol; dimer, and dimer to tetramer
# [1] = biological target: RSV IN(1–270) (Rous sarcoma virus (Prague A strain))
# [2] = biological target: RSV IN(1–270)•C23S (Rous sarcoma virus (Prague A strain))
# [3] = biological target: RSV IN(49–270) (Rous sarcoma virus (Prague A strain))
substance,measurement,setting,value
RSV IN(1–270) (domain or fragment),stoichiometry N,[1],2 and 4
RSV IN(1–270)•C23S (domain or fragment),stoichiometry N,[2],2
RSV IN(49–270) (domain or fragment),stoichiometry N,[3],2
